Laboratory results published in US20230012273A1 (Boehringer Ingelheim, published 2023).

Experiments:
[1] = molecular target: T1, cynomolgus SIRPβ1v3 extracellular domain + His-tag (XP_005568593) (cynomolgus monkey); experiment: SPR, Ab captured, ECD-His analyte
T1 construct: also called Cyno SIRPβ1v3; cynoSIRPβ1v3
T1 chain: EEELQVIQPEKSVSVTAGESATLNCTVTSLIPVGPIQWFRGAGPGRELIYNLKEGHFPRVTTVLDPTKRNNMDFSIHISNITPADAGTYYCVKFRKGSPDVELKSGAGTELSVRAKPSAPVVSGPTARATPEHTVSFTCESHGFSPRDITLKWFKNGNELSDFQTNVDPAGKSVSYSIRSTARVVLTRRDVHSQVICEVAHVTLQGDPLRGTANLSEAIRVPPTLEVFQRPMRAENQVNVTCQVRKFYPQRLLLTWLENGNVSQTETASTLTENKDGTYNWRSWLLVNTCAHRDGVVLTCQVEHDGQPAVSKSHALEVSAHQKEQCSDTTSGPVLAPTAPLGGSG
How it was run: (§1)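 In HBS-EP+ (1×), captured antibodies are exposed to a twofold concentration series of SIRP extracellular domain carrying a His tag, using 300 s contact at 30 μl/min and a 600 s dissociation window.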

[2] = molecular target: T2, cynomolgus SIRPα extracellular domain + His-tag (EGM_02252) (cynomolgus monkey); experiment: SPR, Ab captured, ECD-His analyte
T2 construct: also called CySIRPα EGM_02252; cynoSIRPα
T2 chain: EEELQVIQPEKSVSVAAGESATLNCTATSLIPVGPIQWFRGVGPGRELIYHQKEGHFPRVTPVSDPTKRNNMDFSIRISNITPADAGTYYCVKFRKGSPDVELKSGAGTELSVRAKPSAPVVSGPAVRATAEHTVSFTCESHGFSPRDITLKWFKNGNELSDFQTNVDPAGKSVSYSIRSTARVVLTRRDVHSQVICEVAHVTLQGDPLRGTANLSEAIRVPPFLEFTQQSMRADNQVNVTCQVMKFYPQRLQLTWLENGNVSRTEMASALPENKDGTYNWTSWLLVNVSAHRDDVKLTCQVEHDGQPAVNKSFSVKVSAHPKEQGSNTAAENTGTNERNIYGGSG
How it was run: as §1

[3] = molecular target: T3, cynomolgus SIRPα extracellular domain + His-tag (XP_015313155) (cynomolgus monkey); experiment: SPR, Ab captured, ECD-His analyte
T3 construct: also called CySIRPα XP_015313155; cynoSIRPα
T3 chain: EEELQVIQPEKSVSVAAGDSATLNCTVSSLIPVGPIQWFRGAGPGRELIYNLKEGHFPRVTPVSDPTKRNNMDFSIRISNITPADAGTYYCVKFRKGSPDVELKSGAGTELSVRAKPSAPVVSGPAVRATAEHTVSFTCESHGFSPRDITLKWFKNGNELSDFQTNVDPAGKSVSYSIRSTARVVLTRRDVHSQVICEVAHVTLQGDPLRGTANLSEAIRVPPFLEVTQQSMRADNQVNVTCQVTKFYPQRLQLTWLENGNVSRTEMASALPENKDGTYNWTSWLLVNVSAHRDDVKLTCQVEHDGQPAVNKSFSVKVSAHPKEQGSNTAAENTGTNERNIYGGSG
How it was run: as §1

[4] = molecular target: T4, cynomolgus SIRPα extracellular domain + His-tag (NP_001271679) (cynomolgus monkey); experiment: SPR, Ab captured, ECD-His analyte
T4 construct: also called CySIRPα NP_001271679; cynoSIRPα
T4 chain: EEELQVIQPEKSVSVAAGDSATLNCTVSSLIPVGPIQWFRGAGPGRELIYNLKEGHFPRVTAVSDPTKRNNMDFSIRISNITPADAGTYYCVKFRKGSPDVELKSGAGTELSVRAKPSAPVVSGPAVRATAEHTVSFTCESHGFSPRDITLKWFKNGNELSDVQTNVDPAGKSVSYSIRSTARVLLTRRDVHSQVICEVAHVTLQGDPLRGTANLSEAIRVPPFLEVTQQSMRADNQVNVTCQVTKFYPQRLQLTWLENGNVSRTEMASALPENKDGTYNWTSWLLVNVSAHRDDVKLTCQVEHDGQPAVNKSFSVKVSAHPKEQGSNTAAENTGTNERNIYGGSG
How it was run: as §1

[5] = molecular target: T5, cynomolgus SIRPβ1 (XP_005568598) extracellular domain + His-tag (cynomolgus monkey); experiment: SPR
T5 construct: SPR analyte; also called Cyno SIRPβ1 XP_005568598; cynoSIRPβ1; not shown: His-tag
T5 chain: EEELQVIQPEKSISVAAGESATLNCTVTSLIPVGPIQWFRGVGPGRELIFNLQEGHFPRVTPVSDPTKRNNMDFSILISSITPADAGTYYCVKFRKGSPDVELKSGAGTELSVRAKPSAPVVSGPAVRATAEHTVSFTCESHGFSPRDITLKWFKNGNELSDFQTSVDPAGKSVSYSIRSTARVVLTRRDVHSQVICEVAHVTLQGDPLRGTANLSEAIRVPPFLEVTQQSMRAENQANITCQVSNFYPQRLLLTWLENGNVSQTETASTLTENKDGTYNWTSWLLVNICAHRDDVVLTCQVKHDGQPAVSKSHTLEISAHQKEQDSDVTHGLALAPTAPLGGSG
How it was run: as §1

[6] = molecular target: T6, cynomolgus SIRPγ (XP_005568591) extracellular domain + His-tag (cynomolgus monkey, UniProt Q9P1W8 29-359 (human entry)); experiment: SPR
T6 construct: SPR analyte; also called Cyno SIRPγ XP_005568591; cynoSIRPγ; not shown: His-tag
T6 chain: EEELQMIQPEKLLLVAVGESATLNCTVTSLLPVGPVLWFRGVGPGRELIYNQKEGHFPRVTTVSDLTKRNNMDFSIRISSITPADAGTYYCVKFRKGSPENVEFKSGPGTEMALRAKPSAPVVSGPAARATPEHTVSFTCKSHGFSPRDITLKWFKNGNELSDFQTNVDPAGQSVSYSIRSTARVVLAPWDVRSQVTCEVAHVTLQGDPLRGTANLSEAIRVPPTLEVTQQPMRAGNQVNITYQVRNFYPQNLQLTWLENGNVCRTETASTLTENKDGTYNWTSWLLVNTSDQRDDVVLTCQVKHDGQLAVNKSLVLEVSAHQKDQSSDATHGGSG
How it was run: as §1

B1: Antibody A (antibody, human IgG1, kappa, L234A L235A)
heavy: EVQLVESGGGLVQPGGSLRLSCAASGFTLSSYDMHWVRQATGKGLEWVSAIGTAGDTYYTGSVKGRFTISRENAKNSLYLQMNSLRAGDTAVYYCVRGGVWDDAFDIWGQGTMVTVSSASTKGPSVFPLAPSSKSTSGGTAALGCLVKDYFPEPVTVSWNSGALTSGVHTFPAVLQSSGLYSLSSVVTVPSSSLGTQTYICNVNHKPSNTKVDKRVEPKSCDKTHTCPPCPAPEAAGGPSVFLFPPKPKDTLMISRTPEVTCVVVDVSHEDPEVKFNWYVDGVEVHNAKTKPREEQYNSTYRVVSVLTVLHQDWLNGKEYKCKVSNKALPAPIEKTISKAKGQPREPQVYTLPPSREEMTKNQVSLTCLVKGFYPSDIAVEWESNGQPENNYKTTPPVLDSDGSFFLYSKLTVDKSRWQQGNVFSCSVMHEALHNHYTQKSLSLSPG
light: DIQMTQSPSSLSASVGDRVTITCRASQDINNYLAWFQQKPGKAPKSLIYTASSLHSGVPSKFSGSGSGTDFTLTISSLQPEDFATYYCQQYVSYPYTFGQGTKLEIKRTVAAPSVFIFPPSDEQLKSGTASVVCLLNNFYPREAKVQWKVDNALQSGNSQESVTEQDSKDSTYSLSSTLTLSKADYEKHKVYACEVTHQGLSSPVTKSFNRGEC
- Kd [1]: 246 nM
- Kd [2]: 258 nM
- Kd [3]: 165 nM
- Kd [4]: 336 nM

B2: Antibody A10 (antibody, human IgG1, kappa, L234A L235A)
heavy: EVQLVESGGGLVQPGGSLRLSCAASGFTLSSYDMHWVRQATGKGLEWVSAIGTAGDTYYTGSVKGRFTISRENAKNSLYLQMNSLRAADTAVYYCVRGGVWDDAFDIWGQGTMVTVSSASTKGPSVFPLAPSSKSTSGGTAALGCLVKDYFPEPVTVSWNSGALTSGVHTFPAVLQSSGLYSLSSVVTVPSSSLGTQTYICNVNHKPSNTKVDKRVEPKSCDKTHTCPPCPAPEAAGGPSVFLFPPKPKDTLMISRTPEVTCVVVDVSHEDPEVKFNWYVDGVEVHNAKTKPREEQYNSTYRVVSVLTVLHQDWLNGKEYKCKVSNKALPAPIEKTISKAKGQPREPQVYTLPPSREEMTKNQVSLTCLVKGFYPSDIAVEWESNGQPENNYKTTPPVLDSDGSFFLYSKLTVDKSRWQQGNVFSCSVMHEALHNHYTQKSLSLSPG
light: DIQMTQSPSSLSASVGDRVTITCRASQDINNYLAWFQQKPGKAPKSLIYTASSLHSGVPSKFSGSGSGTDFTLTISSLQPEDFATYYCQQYVSYPYTFGQGTKLEIKRTVAAPSVFIFPPSDEQLKSGTASVVCLLNNFYPREAKVQWKVDNALQSGNSQESVTEQDSKDSTYSLSSTLTLSKADYEKHKVYACEVTHQGLSSPVTKSFNRGEC
- Kd [1]: 271 nM
- Kd [2]: 249 nM
- Kd [3]: 180 nM
- Kd [4]: 378 nM

B3: Antibody E (antibody, human IgG1, kappa, L234A L235A)
heavy: not shown
light: DIVMTQSPLSLPVTPGEPASISCKSSQSLLYSNGYNYLDWYLQRPGQSPQLLIYLGSNRASGVPDRFSGSGSGTDFTLKISRVEAEDVGVFYCMQALQTPLTFGGGTKVEIKRTVAAPSVFIFPPSDEQLKSGTASVVCLLNNFYPREAKVQWKVDNALQSGNSQESVTEQDSKDSTYSLSSTLTLSKADYEKHKVYACEVTHQGLSSPVTKSFNRGEC
- binding result [5]: no binding (tested: 1000 nM)
- binding result [6]: no binding (tested: 1000 nM)

B4: Antibody E22 (antibody, human IgG1, kappa, L234A L235A, V domains shown)
VH: QVQLQESGPGLVKPSETLSLTCTVSGGSIRDYYWSWIRQPPGKGLEWIGFIYYNGRTFYQSSLKSRVTISLDTSKNQFSLKMTSVTAADTAVYYCARVRAYSGIGLDGTDVWGQGTTVTVSS
VL: DIVMTQSPLSLPVTPGEPASISCRSSQSLLYSTGYTYLDWYLQRPGQSPQLLIYGGSSRASGVPDRFSGSGSGTDFTLKISRVEAEDVGVFYCGQALQTPLTFGQGTKVEIKR
- binding result [5]: no binding (tested: 1000 nM)
- binding result [6]: no binding (tested: 1000 nM)
